To fix the notation:
T1: human TIM-3 extracellular domain protein with hFc tag (hTIM-3-hFc) (human, UniProt Q8TDQ0 22-200)
T1 construct: not shown: human IgG Fc fragment (hFc) of the pCpC vector
T1 sequence: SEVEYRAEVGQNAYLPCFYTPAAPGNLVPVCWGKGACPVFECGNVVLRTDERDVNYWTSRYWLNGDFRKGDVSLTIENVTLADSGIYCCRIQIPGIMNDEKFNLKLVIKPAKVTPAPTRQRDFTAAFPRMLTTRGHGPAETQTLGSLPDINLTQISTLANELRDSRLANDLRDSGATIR

T2: murine TIM-3 extracellular domain protein with hFc tag (mTIM-3-hFc) (mouse, UniProt Q8VIM0 29-191)
T2 construct: also called mouse TIM-3 extracellular domain protein; not shown: human IgG Fc fragment (hFc) of the pCpC vector
T2 chain: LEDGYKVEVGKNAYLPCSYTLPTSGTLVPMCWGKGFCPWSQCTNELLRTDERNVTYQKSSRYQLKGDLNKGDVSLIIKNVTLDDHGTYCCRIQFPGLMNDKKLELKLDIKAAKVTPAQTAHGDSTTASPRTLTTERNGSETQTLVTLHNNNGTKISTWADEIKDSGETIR

T3: monkey TIM-3 on CHOK1 stable cell line (CHOK1-cTIM-3) (monkey)
T3 chain: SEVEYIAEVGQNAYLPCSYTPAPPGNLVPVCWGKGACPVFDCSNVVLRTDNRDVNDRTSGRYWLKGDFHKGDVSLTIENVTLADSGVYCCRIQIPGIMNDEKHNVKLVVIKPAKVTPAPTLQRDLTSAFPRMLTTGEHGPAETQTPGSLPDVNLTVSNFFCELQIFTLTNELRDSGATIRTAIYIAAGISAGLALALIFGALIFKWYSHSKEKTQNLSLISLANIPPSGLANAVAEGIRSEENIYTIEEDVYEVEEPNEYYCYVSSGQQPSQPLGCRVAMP

B1: 7A4F10 fully human TIM-3 antibody (human IgG4, kappa) (antibody, V domains shown)
VH: EVQLLESGGGLVQPGGSLRLSCAASGFTFRTHLISWVRQAPGKGLEWVAAITGSGGSTYYADSVKGRFIISRDNSKNTLFLQMNSLRAEDTAVYYCAKDGGSGSYDDFWGQGTLVTVSS
VL: ETVLTQSPVTLSLSPGERATLSCRASQSVGSYLAWYQQKPGQAPRLLIYDASNRATGIPARFSGSGSGTDFTLTISSLEPEDFAVYYCQQRSNWPPTFGQGTKVEIK
B2: 18D2H2 fully human TIM-3 antibody (human IgG4, kappa) (antibody, V domains shown)
VH: EVQLVESGGDLVQPGGSLRLSCAASGFTFSTYWMTWVRQAPGRGLEWVANIKQDGSAKYYVDSVKGRFTLSRDDAKNSLYLQMNSLRAEDTAVYYCARGSNWFDYWGQGTLVTVSS
VL: ETVMTQSPATLSVSPGERATLSCRANQNVYSNLAWYQQKPGQAPRLLIYDASTRATGFPARFSGSGSGTEFTLTISSLQSEDFAVYYCQQYNNWPLTFGGGTKVEIK
B3: 34B6D8 fully human TIM-3 antibody (human IgG4, kappa) (antibody, V domains shown)
VH: B2 VH with D10G, R43K, G44R, D54G, S56G, A57D, L70I, R72T, D74N, Y105P
VL: EIVMTQSPATLSMSPGERATLSCRASQSVYDNLAWYQQKPGQAPRLLIYGASTRATGIPARFSGSGSGTEFTLTISSLQSEDFALYYCQQYTHWPITFGQGTRLEIK
B4: 39E5H1 fully human TIM-3 antibody (human IgG4, kappa) (antibody, V domains shown)
VH: EVQLVESGGGLVQPGGSLRLSCAASGFTFSSYWMSWVRQAPGKGLEWVANIKRGGSERYYVDSVKGRFTISGDNAKNSVYLQMNSLRAEDTAVYYCARGSNWFDPWGQGTLVTVSS
VL: B3 VL with I2T, T10I, M13V, D31S, P40L, G50D, L85V, T92N, H93N

Positions count from the first letter of the chain named.

One test addresses T1, human TIM-3 extracellular domain …. In words: ELISA, coated human TIM-3 ECD protein, 0.0007 nM antibody. A general note: In an ELISA, binding on a coated surface is turned into a signal by an enzyme label.
As to B1, the OD450 is 0.11.

B2: the OD450 was determined as 0.11.

For the molecule B3, the OD450 is 0.11.

B4 yielded an OD450 of 0.1.

The next test has the same target. In words: ELISA, coated human TIM-3 ECD protein, 0.0667 nM antibody.
Take B1: the OD450 is 1.69.

For B2, the OD450 is 1.57.

B3 showed an OD450 of 1.58.

With B4, the OD450 was determined as 1.33.

The next test has as its target T2, murine TIM-3 extracellular domain …. In words: ELISA, coated mouse TIM-3 ECD protein, 0.0001 nM antibody.
In turn, B1 returned an OD450 of 0.22.

B2 displayed an OD450 of 0.21.

In turn, B3 had an OD450 of 0.23.

For B4, the OD450 turned out to be 0.23.

Another test concerns the target T3, monkey TIM-3 on CHOK1 stable cell line …. In words: FACS, CHOK1-cTIM-3 cells, 0.013 nM antibody.
Molecule B1 showed a Mean fluorescence intensity of 7.1.

B2 gave a Mean fluorescence intensity of 14.8.

For B3, the Mean fluorescence intensity was determined as 12.7.

As to B4, the Mean fluorescence intensity stood at 14.8.

The record behind these values is US20220033501A1 (SHANGHAI PHARMAEXPLORER, published 2022).
